Measurements: patent US20190144863, “MODULATING THE CELLULAR STRESS RESPONSE” (The General Hospital Corporation, published 2019)

Legend:
[1] = biological target: T1, EZH2 (UniProt Q61188 Q61188:1-746); test: filter; double-filter binding, same buffer with yeast tRNA; extremely low affinity; conditions: label: radiolabelled (cpm)
[2] = biological target: T1, EZH2; test: FP filter; double-filter binding; 50 mM Tris pH 8.0, 100 mM NaCl, 5 mM MgCl2, 50 ng/ul yeast tRNA, 30 C; conditions: folded; critical region nt 81-131

T1 sequence (Q61188 whole entry, one chain of several): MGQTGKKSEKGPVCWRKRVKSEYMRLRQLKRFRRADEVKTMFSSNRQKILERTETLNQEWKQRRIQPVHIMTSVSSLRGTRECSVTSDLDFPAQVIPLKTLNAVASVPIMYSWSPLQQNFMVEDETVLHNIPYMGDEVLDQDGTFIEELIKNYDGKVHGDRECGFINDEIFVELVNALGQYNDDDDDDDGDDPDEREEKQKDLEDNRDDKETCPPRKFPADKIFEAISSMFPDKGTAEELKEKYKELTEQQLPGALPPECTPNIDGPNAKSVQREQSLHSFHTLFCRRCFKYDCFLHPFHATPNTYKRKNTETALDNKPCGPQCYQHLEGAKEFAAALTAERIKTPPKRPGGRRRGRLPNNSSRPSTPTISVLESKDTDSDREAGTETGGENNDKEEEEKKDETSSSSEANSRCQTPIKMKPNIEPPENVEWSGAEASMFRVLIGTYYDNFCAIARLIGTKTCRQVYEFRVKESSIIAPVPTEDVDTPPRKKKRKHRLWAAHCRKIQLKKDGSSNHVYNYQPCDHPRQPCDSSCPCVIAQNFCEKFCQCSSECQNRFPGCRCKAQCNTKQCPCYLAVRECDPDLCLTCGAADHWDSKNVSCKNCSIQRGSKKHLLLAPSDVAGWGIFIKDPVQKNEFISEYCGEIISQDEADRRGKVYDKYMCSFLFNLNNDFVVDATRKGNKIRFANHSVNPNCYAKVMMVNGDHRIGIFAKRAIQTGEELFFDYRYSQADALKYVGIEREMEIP

Binder | Kd [1] [nM] | Kd [2] [nM]
CGUAACGAGAUCUGACUCCCUCUUCUGGAGUGUCUGAAGACA (ssRNA, [none]) [B2 RNA domain III] | > 3000 | 
B2 RNA full length (ssRNA) RNA: GGGGCUGGUGAGAUGGCUCAGUGGGUAAGAGCACCCGACUGCUCUUCCGAAGGUCCGGAGUUCAAAUCCCAGCAACCACAUGGUGGCUCACAACCAUCCGUAACGAGAUCUGACUCCCUCUUCUGGAGUGUCUGAAGACAGCUACAGUGUACUUACAUAUAAUAAAUAAAUAAAUCUUUAAAAAAAAA |  | 423
B2 RNA domain I (ssRNA, [none]) RNA: GGGGCUGGUGAGAUGGCUCAGUGGGUAAGAGCACCCGACUGCUCUUCCGAAGGUCCGGAGUUCAAAUCCCAG | > 3000 | 
B2 RNA domain I+II (ssRNA, [none]) RNA: GGGGCUGGUGAGAUGGCUCAGUGGGUAAGAGCACCCGACUGCUCUUCCGAAGGUCCGGAGUUCAAAUCCCAGCAACCACAUGGUGGCUCACAACCAUCCGUAACG | > 3000 | 
